Source: paper PMC9404779, “Oxidative Implications of Substituting a Conserved Cysteine Residue in Sugar Beet Phytoglobin BvPgb 1.2” (Antioxidants, 2022)
Counter-ions that a name gives are not always drawn.

How the values were obtained:
[1] = target: BvPgb1.2 Cys86Ala mutant (Beta vulgaris (sugar beet)); assay: SEC; analytical SEC, Superdex 75 10/300 GL, 50 mM NaP with 150 mM NaCl pH 7.0, 100 µL of 1 mg/mL protein; MW from retention volume on a calibration curve; dimer of monomers
[2] = target: Wildtype (WT) BvPgb1.2, Class 1 phytoglobin from sugar beet (Beta vulgaris) (Beta vulgaris (sugar beet)); assay: as above
BvPgb1.2 = target: T1, BvPgb1.2 (Beta vulgaris, UniProt V5QR23); assay: peroxidase assay, absorbance of ABTS radical cation at […] nm; assay type: biochemical; conditions: 10 mM H2O2, 5 mM ABTS, 50 mM Tris-HCl pH 8.5; protein incubated at 22 or 37 °C
T1 construct: gene Bv9_224250_aayd.t2; recombinant from E. coli BL21(DE3), pET-DEST42
T1 sequence (V5QR23 1-171): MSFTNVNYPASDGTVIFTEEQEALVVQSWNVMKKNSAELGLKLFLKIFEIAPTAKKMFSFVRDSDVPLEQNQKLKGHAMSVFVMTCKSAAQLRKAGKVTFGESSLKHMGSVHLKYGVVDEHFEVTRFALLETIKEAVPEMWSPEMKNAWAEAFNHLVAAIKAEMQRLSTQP

Molecule: BvPgb1.2 Cys86Ala mutant (natural protein)
- degree of dimerization [1]: > 99%
- stoichiometry N [1]: 2

Molecule: Wildtype (WT) BvPgb1.2, Class 1 phytoglobin from sugar beet (Beta vulgaris) (natural protein)
- degree of dimerization [2]: > 99%
- stoichiometry N [2]: 2

Molecule: CCn1c(=NN=c2sc3cc(S(=O)(=O)O)ccc3n2CC)sc2cc(S(=O)(=O)O)ccc21 [2,2′-azino-di-(3-ethylbenzthiazolinesulfonic acid) diammonium salt]
- peroxidase assay, absorbance of ABTS radical cation at 415 nm (BvPgb1.2): The detectable radical formation of ABTS was used in this study to quantify this
